Measurements as given in patent US20190000971A1 (RESEARCH INSTITUTE AT NATIONWIDE CHILDREN S HOSPITAL, published 2019).

B1: monoclonal antibody mIhfB4 NTHI (hybridoma mIhfB4 NTHI 12E6.F8.D12.D5, ATCC PTA-122335) (antibody, V domains shown)
VH: EVQLQESGAELVRSGASVKLSCTASGFNIKDYYMHWVKQRPEQGLEWIGWIDPENDDTEYVPKFQGKASMTADTSSNTAYLQLSSLTSEDTAVYYCTELGAYWGQGTLV
VL: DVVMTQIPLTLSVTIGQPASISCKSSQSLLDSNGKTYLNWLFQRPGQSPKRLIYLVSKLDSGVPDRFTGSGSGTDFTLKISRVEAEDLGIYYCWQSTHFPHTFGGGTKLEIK
notes: 17; also called Ihf mB4; mB4
B2: monoclonal antibody IhfA5 NTHI (hybridoma IhfA5 NTHI 14G8.F5.G6, ATCC PTA-122334) (antibody, V domains shown)
VH: EVQLQESGPGLVTPSQSLSMTCTVSGFSLTSYSVHWVRQPPGKSLEWLGVIWAGGSTNYNSALMSRLSISKDNSKSQVFLKMDSLQTDDTAIYYCAREDSWGQGTSVTVSS
VL: DIVMTQSQKFMSTSVGDRVSVTCKASQNVGTNVAWYQQKPGQSPKALIYSASYRYSGVPDRFTGSGSGTDFTLTISNVQSEDLAEYFCQQYNSYPTFGGGTKLEIK
notes: 13; also called mAb IhfA5NTHI

Assays:
[1] = biological target: T1, Haemophilus influenzae IhfB, modified B4 (mB4) fragment (Haemophilus influenzae); assay: ELISA (FIG. 2B)
T1 construct: Synthetic 20-mer peptide; also called IhfB frag. mB4
T1 peptide: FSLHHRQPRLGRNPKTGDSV

[2] = biological target: T2, Haemophilus influenzae IhfA, A5 fragment (Haemophilus influenzae); assay: ELISA, peptide-coated plate (FIG. 2B/2C)
T2 construct: Synthetic 20-mer peptide; also called IhfA frag; A5
T2 peptide: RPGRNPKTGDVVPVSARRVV

Binder | binding result [1] | binding result [2]
B1 | binds | –
B2 | – | binds
